Columns and labels:
HeLa cells = assay: G-CSF modified mRNA transfected in HeLa cells, G-CSF ELISA; format: cell-based, human; details: HeLa cells, ELISA
Experimental: (§1) To assess the activity of all our different chemical modifications in the context of a second open reading frame, we replicated experiments previously conducted using luciferase mRNA, with human G-CSF mRNA. […] The mutant T7 polymerase was obtained commercially (Durascribe® T7 Transcription kit (Cat. No. DS010925) (Epicentre®, Madison, Wis.).
(§2) The modified RNA in Tables 27 and 28 were transfected in vitro in HeLa cells or added to rabbit reticulysates (250 ng of modified mRNA) as indicated. […] In Table 27, “NT” means not tested.

interferon-alpha (IFN-α) = assay: In vitro screening in PBMC: interferon-alpha induction by ELISA; format: cell-based, human
Text: (§3) The supernatant was harvested and stored frozen until analyzed by ELISA to determine the G-CSF protein expression, and the induction of the cytokines interferon-alpha (IFN-α) and tumor necrosis factor alpha (TNF-α).

[1] = system: peripheral blood mononuclear cells (PBMC); assay: In vitro screening in PBMC: G-CSF protein expression by ELISA; format: cell-based, human
Text: as §3

rabbit reticulysates = assay: G-CSF modified mRNA in rabbit reticulysates, G-CSF ELISA; format: biochemical; details: 250 ng of modified mRNA, listed as 5-methylcytosine/pseudouridine
Experimental: as §1, §2

[2] = system: tumor necrosis factor alpha (TNF-α); assay: In vitro screening in PBMC: tumor necrosis factor alpha induction by ELISA; format: cell-based, human
Text: as §3

[3] = PBMC Donor 1, 500 ng G-CSF mRNA
[4] = PBMC Donor 1, 500 ng G-CSF mRNA, listed as 5-methylcytosine and pseudouridine (2nd set)
[5] = PBMC Donor 1, 500 ng G-CSF mRNA, listed as 5-methylcytosine and pseudouridine (3rd set)
[6] = PBMC Donor 1, 500 ng G-CSF mRNA, listed as 5-methylcytosine and pseudouridine (4th set)
[7] = PBMC Donor 2, 500 ng G-CSF mRNA
[8] = PBMC Donor 2, 500 ng G-CSF mRNA, listed as 5-methylcytosine and pseudouridine (2nd set)
[9] = PBMC Donor 2, 500 ng G-CSF mRNA, listed as 5-methylcytosine and pseudouridine (3rd set)
[10] = PBMC Donor 2, 500 ng G-CSF mRNA, listed as 5-methylcytosine and pseudouridine (4th set)
[11] = PBMC Donor 3, 500 ng G-CSF mRNA
[12] = PBMC Donor 3, 500 ng G-CSF mRNA, listed as 5-methylcytosine and pseudouridine (2nd set)
[13] = PBMC Donor 3, 500 ng G-CSF mRNA, listed as 5-methylcytosine and pseudouridine (3rd set)
[14] = PBMC Donor 3, 500 ng G-CSF mRNA, listed as 5-methylcytosine and pseudouridine (4th set)

B1: 5-methylcytosine and pseudouridine (1^st set): G-CSF mRNA (SEQ ID NO: 408) fully modified with 5-methylcytosine and pseudouridine; repeated sets/tests (nucleic acid)
chain: GGGAAAUAAGAGAGAAAAGAAGAGUAAGAAGAAAUAUAAGAGCCACCAUGGCCGGUCCCGCGACCCAAAGCCCCAUGAAACUUAUGGCCCUGCAGUUGCUGCUUUGGCACUCGGCCCUCUGGACAGUCCAAGAAGCGACUCCUCUCGGACCUGCCUCAUCGUUGCCGCAGUCAUUCCUUUUGAAGUGUCUGGAGCAGGUGCGAAAGAUUCAGGGCGAUGGAGCCGCACUCCAAGAGAAGCUCUGCGCGACAUACAAACUUUGCCAUCCCGAGGAGCUCGUACUGCUCGGGCACAGCUUGGGGAUUCCCUGGGCUCCUCUCUCGUCCUGUCCGUCGCAGGCUUUGCAGUUGGCAGGGUGCCUUUCCCAGCUCCACUCCGGUUUGUUCUUGUAUCAGGGACUGCUGCAAGCCCUUGAGGGAAUCUCGCCAGAAUUGGGCCCGACGCUGGACACGUUGCAGCUCGACGUGGCGGAUUUCGCAACAACCAUCUGGCAGCAGAUGGAGGAACUGGGGAUGGCACCCGCGCUGCAGCCCACGCAGGGGGCAAUGCCGGCCUUUGCGUCCGCGUUUCAGCGCAGGGCGGGUGGAGUCCUCGUAGCGAGCCACCUUCAAUCAUUUUUGGAAGUCUCGUACCGGGUGCUGAGACAUCUUGCGCAGCCGUGAAGCGCUGCCUUCUGCGGGGCUUGCCUUCUGGCCAUGCCCUUCUUCUCUCCCUUGCACCUGUACCUCUUGGUCUUUGAAUAAAGCCUGAGUAGGAAG
modifications: 5-methylcytosine/pseudouridine modified; Description of Artificial Sequence: Synthetic Transcript Sequence
notes: repeated sets/tests
HeLa cells; G-CSF mRNA, listed as 5-methylcytosine/pseudouridine, Test A
  G-CSF protein (pg/ml) HeLa cells: 609,545 pg/ml
HeLa cells; G-CSF mRNA, listed as 5-methylcytosine/pseudouridine, Test B
  G-CSF protein (pg/ml) HeLa cells: 358,182 pg/ml
HeLa cells; G-CSF mRNA, listed as 5-methylcytosine/pseudouridine, Test C
  G-CSF protein (pg/ml) HeLa cells: 882,500 pg/ml
HeLa cells; G-CSF mRNA, listed as 5-methylcytosine/pseudouridine, Test D
  G-CSF protein (pg/ml) HeLa cells: 87,045 pg/ml
HeLa cells; combination chemistries
  G-CSF protein (pg/ml) HeLa cells: 301,364 pg/ml
interferon-alpha (IFN-α); [3]
  IFN-α Expression: 88 pg/mL
interferon-alpha (IFN-α); [4]
  IFN-α Expression: 133 pg/mL
interferon-alpha (IFN-α); [5]
  IFN-α Expression: 88 pg/mL
interferon-alpha (IFN-α); [6]
  IFN-α Expression: 131 pg/mL
interferon-alpha (IFN-α); [7]
  IFN-α Expression: 94 pg/mL
interferon-alpha (IFN-α); [8]
  IFN-α Expression: 92 pg/mL
interferon-alpha (IFN-α); [9]
  IFN-α Expression: 75 pg/mL
interferon-alpha (IFN-α); [10]
  IFN-α Expression: 28 pg/mL
interferon-alpha (IFN-α); [11]
  IFN-α Expression: 148 pg/mL
interferon-alpha (IFN-α); [12]
  IFN-α Expression: 167 pg/mL
interferon-alpha (IFN-α); [13]
  IFN-α Expression: 150 pg/mL
interferon-alpha (IFN-α); [14]
  IFN-α Expression: 18 pg/mL
[1]; [3]
  G-CSF Protein Expression: 2,632 pg/ml
[1]; [4]
  G-CSF Protein Expression: 1,682 pg/ml
[1]; [5]
  G-CSF Protein Expression: 1,595 pg/ml
[1]; [6]
  G-CSF Protein Expression: 264 pg/mL
[1]; [7]
  G-CSF Protein Expression: 1,955 pg/ml
[1]; [8]
  G-CSF Protein Expression: 1,382 pg/ml
[1]; [9]
  G-CSF Protein Expression: 1,432 pg/ml
[1]; [10]
  G-CSF Protein Expression: 350 pg/mL
[1]; [11]
  G-CSF Protein Expression: 1,373 pg/ml
[1]; [12]
  G-CSF Protein Expression: 1,036 pg/ml
[1]; [13]
  G-CSF Protein Expression: 955 pg/mL
[1]; [14]
  G-CSF Protein Expression: 182 pg/mL
Rabbit reticulysates; Test A
  G-CSF protein (pg/ml) Rabbit reticulysates cells: 119,750 pg/ml
Rabbit reticulysates; Test B
  G-CSF protein (pg/ml) Rabbit reticulysates cells: 57,875 pg/ml
Rabbit reticulysates; Test C
  G-CSF protein (pg/ml) Rabbit reticulysates cells: 49,250 pg/ml
Rabbit reticulysates; Test D
  G-CSF protein (pg/ml) Rabbit reticulysates cells: 47,750 pg/ml
[2]; [3]
  TNF-α Expression: 64 pg/mL
[2]; [4]
  TNF-α Expression: 99 pg/mL
[2]; [5]
  TNF-α Expression: 84 pg/mL
[2]; [6]
  TNF-α Expression: 53 pg/mL
[2]; [7]
  TNF-α Expression: 89 pg/mL
[2]; [8]
  TNF-α Expression: 111 pg/mL
[2]; [9]
  TNF-α Expression: 89 pg/mL
[2]; [10]
  TNF-α Expression: 24 pg/mL
[2]; [11]
  TNF-α Expression: 121 pg/mL
[2]; [12]
  TNF-α Expression: 150 pg/mL
[2]; [13]
  TNF-α Expression: 130 pg/mL
[2]; [14]
  TNF-α Expression: 29 pg/mL

Reference: patent US20180291335A1, “MODIFIED POLYNUCLEOTIDES FOR ALTERING CELL PHENOTYPE” (ModernaTX, Inc., priority 2012, published 2018)
